Measured values as given in PMC8571288.

Experiments:
[1] = target: SNAP649-CST (Homo sapiens, UniProt Q2NKJ3;Q9H668;Q86WV5 1-1217;1-368;1-123); experiment: CoSMoS; EGFP-RPA-coated DNA, 50 mM KCl, 13.5 nM; smFRET: 25 mM Tris-HCl pH 7.5, 0.5 mM EDTA, 10% glycerol, 50 or 150 mM KCl (temperature not stated); pull-down: 35 mM Tris-HCl pH 7.5, 10% glycerol, 0.01% Igepal, 1 mM 2-ME, 1 mM ATP, 2.5 mM MgCl2, 50 or 150 mM KCl, 37 C; EMSA: 35 mM Tris-HCl pH 7.5, 1 mM DTT, 2.5 mM MgCl2, 100 ng/uL BSA, 50 mM KCl, 37 C; details: protein: recombinant; tags: SNAP (SNAP-Surface 649 label); copies: 1;1;1; label: 5' Cy3 and 3' biotin on Oligo 10; 3' overhang 80 nt
SNAP649-CST, sequence (Q2NKJ3 whole entry, chain 1 of 3): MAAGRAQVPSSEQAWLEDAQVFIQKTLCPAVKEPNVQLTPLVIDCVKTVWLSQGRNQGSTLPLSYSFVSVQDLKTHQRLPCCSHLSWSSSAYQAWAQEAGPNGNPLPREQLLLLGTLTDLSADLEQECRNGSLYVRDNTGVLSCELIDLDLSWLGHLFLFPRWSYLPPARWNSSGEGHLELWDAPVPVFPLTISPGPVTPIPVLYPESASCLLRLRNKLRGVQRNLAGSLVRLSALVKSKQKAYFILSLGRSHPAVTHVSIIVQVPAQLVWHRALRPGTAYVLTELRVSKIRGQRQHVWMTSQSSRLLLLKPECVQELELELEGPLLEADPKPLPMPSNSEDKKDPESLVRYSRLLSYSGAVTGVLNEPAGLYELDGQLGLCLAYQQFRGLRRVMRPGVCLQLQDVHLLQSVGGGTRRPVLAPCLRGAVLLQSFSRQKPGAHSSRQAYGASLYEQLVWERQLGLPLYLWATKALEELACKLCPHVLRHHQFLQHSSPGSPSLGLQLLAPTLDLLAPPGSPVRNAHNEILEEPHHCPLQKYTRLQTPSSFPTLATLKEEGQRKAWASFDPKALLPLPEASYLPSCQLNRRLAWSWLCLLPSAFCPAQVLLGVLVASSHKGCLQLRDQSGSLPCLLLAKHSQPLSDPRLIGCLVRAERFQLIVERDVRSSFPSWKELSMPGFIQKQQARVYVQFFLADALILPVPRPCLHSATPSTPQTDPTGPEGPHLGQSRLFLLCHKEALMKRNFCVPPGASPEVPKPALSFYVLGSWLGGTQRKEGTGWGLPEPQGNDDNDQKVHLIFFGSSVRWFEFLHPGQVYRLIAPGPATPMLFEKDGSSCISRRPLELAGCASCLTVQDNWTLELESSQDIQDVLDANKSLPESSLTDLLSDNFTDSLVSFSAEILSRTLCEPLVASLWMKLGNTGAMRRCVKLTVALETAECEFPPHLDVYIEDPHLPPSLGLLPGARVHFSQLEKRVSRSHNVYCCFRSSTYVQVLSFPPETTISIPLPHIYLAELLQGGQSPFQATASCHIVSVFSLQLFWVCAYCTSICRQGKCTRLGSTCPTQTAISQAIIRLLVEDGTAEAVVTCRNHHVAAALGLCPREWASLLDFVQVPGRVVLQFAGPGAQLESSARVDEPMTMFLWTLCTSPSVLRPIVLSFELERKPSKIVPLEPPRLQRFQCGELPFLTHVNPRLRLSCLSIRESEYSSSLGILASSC
SNAP649-CST, sequence (Q9H668 whole entry, chain 2 of 3): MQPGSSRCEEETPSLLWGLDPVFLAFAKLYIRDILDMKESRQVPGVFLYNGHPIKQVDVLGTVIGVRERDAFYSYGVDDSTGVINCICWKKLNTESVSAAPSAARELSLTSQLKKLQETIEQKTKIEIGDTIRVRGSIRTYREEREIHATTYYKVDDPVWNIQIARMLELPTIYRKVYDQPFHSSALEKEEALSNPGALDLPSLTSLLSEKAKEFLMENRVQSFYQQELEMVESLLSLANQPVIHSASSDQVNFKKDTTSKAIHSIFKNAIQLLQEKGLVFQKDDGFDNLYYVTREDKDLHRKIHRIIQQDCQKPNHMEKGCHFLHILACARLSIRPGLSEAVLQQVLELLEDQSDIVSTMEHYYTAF
SNAP649-CST, sequence (Q86WV5 whole entry, chain 3 of 3): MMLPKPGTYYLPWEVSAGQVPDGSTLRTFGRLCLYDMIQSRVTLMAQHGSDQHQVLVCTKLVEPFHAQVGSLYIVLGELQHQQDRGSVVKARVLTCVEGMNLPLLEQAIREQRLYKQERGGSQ

[2] = target: EGFP-RPA (Homo sapiens, UniProt P27694;P15927;P35244 1-616;1-270;1-121); experiment: CoSMoS; 50 mM KCl, 10 nM; ~85% of DNA foci RPA-bound; 1-4 RPA per DNA; smFRET: 25 mM Tris-HCl pH 7.5, 0.5 mM EDTA, 10% glycerol, 50 or 150 mM KCl (temperature not stated); pull-down: 35 mM Tris-HCl pH 7.5, 10% glycerol, 0.01% Igepal, 1 mM 2-ME, 1 mM ATP, 2.5 mM MgCl2, 50 or 150 mM KCl, 37 C; EMSA: 35 mM Tris-HCl pH 7.5, 1 mM DTT, 2.5 mM MgCl2, 100 ng/uL BSA, 50 mM KCl, 37 C; details: protein: recombinant; tags: EGFP; copies: 1;1;1; label: 5' Cy3 and 3' biotin on Oligo 10; 3' overhang 80 nt
EGFP-RPA, sequence (P27694 whole entry, chain 1 of 3): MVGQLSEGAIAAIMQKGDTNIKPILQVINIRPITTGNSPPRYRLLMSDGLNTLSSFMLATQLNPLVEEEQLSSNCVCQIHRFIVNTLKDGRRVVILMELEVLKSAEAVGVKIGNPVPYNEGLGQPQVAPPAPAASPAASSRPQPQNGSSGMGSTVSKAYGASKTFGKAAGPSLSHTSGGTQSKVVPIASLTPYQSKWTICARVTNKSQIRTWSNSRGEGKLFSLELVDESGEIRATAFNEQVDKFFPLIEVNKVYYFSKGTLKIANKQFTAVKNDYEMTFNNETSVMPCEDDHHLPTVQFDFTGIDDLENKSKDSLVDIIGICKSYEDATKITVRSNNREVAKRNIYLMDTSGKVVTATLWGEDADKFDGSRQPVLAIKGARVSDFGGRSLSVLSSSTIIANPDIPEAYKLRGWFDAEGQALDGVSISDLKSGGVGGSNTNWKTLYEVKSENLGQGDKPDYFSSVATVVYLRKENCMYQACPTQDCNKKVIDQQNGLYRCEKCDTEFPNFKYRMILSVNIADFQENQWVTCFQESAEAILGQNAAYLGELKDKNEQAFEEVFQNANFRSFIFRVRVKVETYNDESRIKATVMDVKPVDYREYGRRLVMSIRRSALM
EGFP-RPA, sequence (P15927 whole entry, chain 2 of 3): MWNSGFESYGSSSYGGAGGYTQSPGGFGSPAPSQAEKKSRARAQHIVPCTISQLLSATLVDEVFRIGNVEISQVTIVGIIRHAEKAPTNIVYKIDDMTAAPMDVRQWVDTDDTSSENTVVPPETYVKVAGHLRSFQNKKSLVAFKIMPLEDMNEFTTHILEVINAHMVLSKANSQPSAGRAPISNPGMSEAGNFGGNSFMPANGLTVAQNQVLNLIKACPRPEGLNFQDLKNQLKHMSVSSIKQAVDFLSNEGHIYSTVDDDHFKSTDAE
EGFP-RPA, sequence (P35244 whole entry, chain 3 of 3): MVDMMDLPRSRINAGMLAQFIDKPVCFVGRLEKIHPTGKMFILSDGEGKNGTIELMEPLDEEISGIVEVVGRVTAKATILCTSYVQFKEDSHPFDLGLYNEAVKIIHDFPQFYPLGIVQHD

[3] = target: CST complex (CTC1-STN1-TEN1) (Homo sapiens, UniProt Q2NKJ3;Q9H668;Q86WV5 1-1217;1-368;1-123); experiment: pull-down; RPA-coated DNA, 50 mM KCl; smFRET: 25 mM Tris-HCl pH 7.5, 0.5 mM EDTA, 10% glycerol, 50 or 150 mM KCl (temperature not stated); pull-down: 35 mM Tris-HCl pH 7.5, 10% glycerol, 0.01% Igepal, 1 mM 2-ME, 1 mM ATP, 2.5 mM MgCl2, 50 or 150 mM KCl, 37 C; EMSA: 35 mM Tris-HCl pH 7.5, 1 mM DTT, 2.5 mM MgCl2, 100 ng/uL BSA, 50 mM KCl, 37 C; details: protein: recombinant; tags: FLAG-CTC1, TEN1-His6; copies: 1;1;1; label: 5' biotin, on streptavidin beads
CST complex (CTC1-STN1-TEN1), sequence (Q2NKJ3 whole entry, chain 1 of 3): as the sequence (Q2NKJ3 whole entry, chain 1 of 3) above
CST complex (CTC1-STN1-TEN1), sequence (Q9H668 whole entry, chain 2 of 3): as the sequence (Q9H668 whole entry, chain 2 of 3) above
CST complex (CTC1-STN1-TEN1), sequence (Q86WV5 whole entry, chain 3 of 3): as the sequence (Q86WV5 whole entry, chain 3 of 3) above

[4] = target: RPA complex (Homo sapiens, UniProt P27694;P15927;P35244 1-616;1-270;1-121); experiment: pull-down; 50 mM KCl; unchanged by CST; smFRET: 25 mM Tris-HCl pH 7.5, 0.5 mM EDTA, 10% glycerol, 50 or 150 mM KCl (temperature not stated); pull-down: 35 mM Tris-HCl pH 7.5, 10% glycerol, 0.01% Igepal, 1 mM 2-ME, 1 mM ATP, 2.5 mM MgCl2, 50 or 150 mM KCl, 37 C; EMSA: 35 mM Tris-HCl pH 7.5, 1 mM DTT, 2.5 mM MgCl2, 100 ng/uL BSA, 50 mM KCl, 37 C; details: protein: recombinant; copies: 1;1;1; label: 5' biotin, on streptavidin beads
RPA complex, sequence (P27694 whole entry, chain 1 of 3): as the sequence (P27694 whole entry, chain 1 of 3) above
RPA complex, sequence (P15927 whole entry, chain 2 of 3): as the sequence (P15927 whole entry, chain 2 of 3) above
RPA complex, sequence (P35244 whole entry, chain 3 of 3): as the sequence (P35244 whole entry, chain 3 of 3) above

[5] = target: T1, RAD51 (Homo sapiens, UniProt Q06609 1-339); experiment: pull-down; RPA-coated DNA plus CST; smFRET: 25 mM Tris-HCl pH 7.5, 0.5 mM EDTA, 10% glycerol, 50 or 150 mM KCl (temperature not stated); pull-down: 35 mM Tris-HCl pH 7.5, 10% glycerol, 0.01% Igepal, 1 mM 2-ME, 1 mM ATP, 2.5 mM MgCl2, 50 or 150 mM KCl, 37 C; EMSA: 35 mM Tris-HCl pH 7.5, 1 mM DTT, 2.5 mM MgCl2, 100 ng/uL BSA, 50 mM KCl, 37 C; details: protein: recombinant; chain copies: 10; label: 5' biotin, on streptavidin beads
T1 sequence (Q06609 whole entry): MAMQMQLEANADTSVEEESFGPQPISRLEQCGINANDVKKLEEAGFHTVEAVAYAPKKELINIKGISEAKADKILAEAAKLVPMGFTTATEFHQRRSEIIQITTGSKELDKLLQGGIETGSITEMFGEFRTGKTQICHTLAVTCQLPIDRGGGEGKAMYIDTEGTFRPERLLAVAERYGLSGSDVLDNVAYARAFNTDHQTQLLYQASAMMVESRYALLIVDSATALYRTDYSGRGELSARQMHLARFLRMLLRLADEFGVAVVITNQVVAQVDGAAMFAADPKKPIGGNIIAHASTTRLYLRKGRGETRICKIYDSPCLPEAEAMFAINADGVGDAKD

[6] = target: T1, RAD51; experiment: negative-stain EM; 150 mM KCl; naked DNA, median filament 96.41 nm; smFRET: 25 mM Tris-HCl pH 7.5, 0.5 mM EDTA, 10% glycerol, 50 or 150 mM KCl (temperature not stated); pull-down: 35 mM Tris-HCl pH 7.5, 10% glycerol, 0.01% Igepal, 1 mM 2-ME, 1 mM ATP, 2.5 mM MgCl2, 50 or 150 mM KCl, 37 C; EMSA: 35 mM Tris-HCl pH 7.5, 1 mM DTT, 2.5 mM MgCl2, 100 ng/uL BSA, 50 mM KCl, 37 C; details: protein: recombinant; chain copies: 10

B1: 80-nt ssDNA overhang (Oligo 9+10) (mixed)
DNA 1: TGGCGACGGCAGCGAGGCTTATGTTCATTTTTTATATCCTTTACTTTATTTTCTCTGTTTATTCATTTACTTATTTTGTATTATCCTTATCTTATTTA
DNA 2: GCCTCGCTGCCGTCGCCA
[1]
  binding result: binds
[2]
  binding result: binds

B2: 80-nt ssDNA, biotinylated Oligo 1 (ssDNA)
DNA: TTATGTTCATTTTTTATATCCTTTACTTTATTTTCTCTGTTTATTCATTTACTTATTTTGTATTATCCTTATCTTATTTA
[3]
  binding result: binds
[4]
  binding result: binds
[5]
  binding result: binds

B3: 80-nt ssDNA Oligo 1 (ssDNA)
DNA: B2 DNA
[6]
  binding result: binds
